According to US20140363427A1 (CRUCELL HOLLAND B V, published 2014):
Where two headings read alike, the source gives them in different places.

Assays:
[1] = biological target: T1, native RSV F protein from the RSV A2 strain (Respiratory Syncytial Virus strain A2, UniProt P03420 26-574); experiment: ELISA, IgG titrated, estimated EC50
T1 construct: also called HEp2 lysate (native); purified RSV F protein (native)

[2] = biological target: F protein of the parental RSV A2 strain (Example 11) (Respiratory Syncytial Virus strain A2, UniProt P03420 26-574); experiment: cell-based or functional assay
[3] = biological target: F protein of RSV B-wash (strain 18537) (respiratory syncytial virus B, strain …, UniProt P13843 26-574); experiment: cell-based or functional assay
[4] = biological target: T1, native RSV F protein from the RSV A2 …; experiment: cell-based or functional assay
[5] = biological target: F protein of RSV B-1 (respiratory syncytial virus B-1, UniProt O36634 26-574); experiment: cell-based or functional assay
[6] = biological target: T2, recombinant RSV F protein, strain A2, extracellular domain (Respiratory Syncytial Virus strain A2, UniProt P03420 26-524); experiment: ELISA, purified Fab, estimated EC50
T2 construct: also called RSV F1 lysate (recombinant); RSV F lysate

[7] = biological target: T1, native RSV F protein from the RSV A2 …; experiment: cell-based or functional assay; remark: listed apart in the source
[8] = biological target: T2, recombinant RSV F protein, strain A2, …; experiment: ELISA, IgG titrated, estimated EC50
[9] = biological target: T2, recombinant RSV F protein, strain A2, …; experiment: comparison of ELISA EC50
[10] = biological target: F protein of the parental RSV A2 strain (Example 11) (Respiratory Syncytial Virus strain A2, UniProt P03420 26-574); experiment: cell-based or functional assay; remark: listed apart in the source
[11] = biological target: T1, native RSV F protein from the RSV A2 …; experiment: ELISA, purified Fab, estimated EC50

B1: Motavizumab IgG (antibody, V domains shown)
VH: QVTLRESGPALVKPTQTLTLTCTFSGFSLSTAGMSVGWIRQPPGKALEWLADIWWDDKKHYNPSLKDRLTISKDTSKNQVVLKVTNMDPADTATYYCARDMIFNFYFDVWGQGTTVTVSS
VL: DIQMTQSPSTLSASVGDRVTITCSASSRVGYMHWYQQKPGKAPKLLIYDTSKLASGVPSRFSGSGSGTEFTLTISSLQPDDFATYYCFQGSGYPFTFGGGTKVEIK
- EC50 [1]: 0.027 nM
- ED50, plaque reduction, RSV A2 parental [2]: 0.519 nM
- ED50, plaque reduction, RSV B/wash [3]: 2.9 nM
- ED50, plaque reduction, RSV A2 [4]: 0.36 nM
- ED50, plaque reduction, RSV B-1 [5]: 0.833 nM

B2: Fab 56E11 (Fab, V domains shown)
VH: EVQLQESGPGLVKPSETLSLTCSVSGVSINSNNYFWAWIRQPPGKGLEWIGNIYYGGSTHYNASLQSRVTISVDTSKSQFSLKLNSVTSADTAVYYCAASESIFWDYYYGLDVWGQGTTVTVSS
VL: QAVLTQPPSASGSPGQSVTISCTGTSSDVGGYNYVSWYQQHPGKAPRLIISEVTKRPSGVPGRFSGSKSGNTASLTVSGLQAEDEADYYCSSYAGSRHVVFGGGTKLTVLG
notes: also called 56E11 Fab
- EC50 [6]: 0.545 nM
- ED50, plaque reduction, RSV A2 [7]: 0.93 nM

B3: IgG form of 56E11 (antibody, V domains shown)
VH: EVQLQESGPGLVKPSETLSLTCSVSGVSINSNNYFWAWIRQPPGKGLEWIGNIYYGGSTHYNASLQSRVTISVDTSKSQFSLKLNSVTSADTAVYYCAASESIFWDYYYGLDVWGQGTTVTVSS
VL: QAVLTQPPSASGSPGQSVTISCTGTSSDVGGYNYVSWYQQHPGKAPRLIISEVTKRPSGVPGRFSGSKSGNTASLTVSGLQAEDEADYYCSSYAGSRHVVFGGGTKLTVLG
- EC50 [8]: 0.073 nM
- fold less affinity than the IgG form of 30D8 [9]: ~10 fold
- ED50, plaque reduction, RSV B/wash [3]: 0.282 nM
- ED50, plaque reduction, RSV B-1 [5]: 0.295 nM

B4: Fab 30D8 (Fab, V domains shown)
VH: EVQLLQSGAELKKPGASVKISCKTSGFTFSGHTIAWVRQAPGQGLEWMGWVSTNNGNTEYAQKIQGRVTMTMDTSTSTVYMELRSLTSDDTAVYFCAREWLVMGGFAFDHWGQGTLLTVSS
VL: QSVLTQASSVSVAPGQTARITCGANNIGSQNVHWYQQKPGQAPVLVVYDDRDRPSGIPDRFSGSNSGNTATLTISRVEAGDEADYYCQVWDSSRDQAVIFGGGTKLTVLG
- ED50, plaque reduction, RSV A2 [7]: 0.107 nM

B5: Fab 69F6 (Fab, V domains shown)
VH: QMQLVQSGAEVRKPGESLKIACKGSGYSFTSYWIAWVRQMPGKGLEWLGIIFPNDSDATYSPSFQGQVTMSVDKSISTAYLQWNSLKASDTAVYFCARQYYLGSFESWGQGTTVTVSS
VL: EIVLTQSPSSLSASVGDRVTISCQASQDISNYLNWYQQKPGKAPRLLIYDASYLDTGVPSRFSGSGSGTDFTFTISSLQPEDFATYYCQQYDDLRGGFTFGPGTKVDVKR
notes: also called 69F6 Fab
- ED50, plaque reduction, RSV A2 parental [10]: 0.256 nM
- EC50 [6]: 0.135 nM
- ED50, plaque reduction, RSV A2 [7]: 0.26 nM

B6: IgG form of 69F6 (antibody, V domains shown)
VH: QMQLVQSGAEVRKPGESLKIACKGSGYSFTSYWIAWVRQMPGKGLEWLGIIFPNDSDATYSPSFQGQVTMSVDKSISTAYLQWNSLKASDTAVYFCARQYYLGSFESWGQGTTVTVSS
VL: EIVLTQSPSSLSASVGDRVTISCQASQDISNYLNWYQQKPGKAPRLLIYDASYLDTGVPSRFSGSGSGTDFTFTISSLQPEDFATYYCQQYDDLRGGFTFGPGTKVDVKR
- EC50 [8]: 0.063 nM
- fold less affinity than the IgG form of 30D8 [9]: ~10 fold
- ED50, plaque reduction, RSV B/wash [3]: > 67 nM
- ED50, plaque reduction, RSV B-1 [5]: > 67 nM

B7: Fab 38F10 (Fab, V domains shown)
VH: EVQLLESGGDVVQPGKSLRLSCTASGFSITDFGIHWVRQAPGKGLEWVALISYNEVNIHYGESVRGRFTISRDIAKNTVYLQMNGLRPEDTGVYFCARDVWEDSWLSLACFQEWGQGSLVVVSS
VL: DIQLTQSPPTLSASVGDRVSMTCRASQSISNWLAWYQQKPGKAPKLLIQKASNLEDGVPSRFTASGFGTEFTLTISSLQPDDFATYYCQQYNSYSGLSFGGGTKVDIKR
- ED50, plaque reduction, RSV A2 [7]: 0.8 nM
- ED50, plaque reduction, RSV A2 (mass concentration) [7]: 0.04 µg/mL
- EC50 [11]: 0.177 nM

B8: IgG form of 38F10 (antibody, V domains shown)
VH: EVQLLESGGDVVQPGKSLRLSCTASGFSITDFGIHWVRQAPGKGLEWVALISYNEVNIHYGESVRGRFTISRDIAKNTVYLQMNGLRPEDTGVYFCARDVWEDSWLSLACFQEWGQGSLVVVSS
VL: DIQLTQSPPTLSASVGDRVSMTCRASQSISNWLAWYQQKPGKAPKLLIQKASNLEDGVPSRFTASGFGTEFTLTISSLQPDDFATYYCQQYNSYSGLSFGGGTKVDIKR
- EC50 [1]: 0.035 nM
- ED50, plaque reduction, RSV B/wash [3]: 5.3 nM
- ED50, plaque reduction, RSV A2 [4]: 0.553 nM
- ED50, plaque reduction, RSV B-1 [5]: 1.4 nM

B9: Fab 104E5 (Fab, V domains shown)
VH: QVQLEQSGAEVKKPGSSVKVSCKPSGGTFDTYTISWVRQAPGQRLEWLGRIIPSLGETNYAHKLQGRVTITADKATSVVYMDLSDLTSEDAAVYYCAFRITGPVDWVWDYGMDVWGQGTTVSVSS
VL: DIQMTQSPSSLPASVGDRVTITCRASQNIKTYLNWYQQKPGRAPKLLISAVSNLQSGVPSRFSGTGSGTDFTLTISSLQPEDFATYYCQQSFSIPLTFGGGAKVEIKR
- ED50, plaque reduction, RSV A2 [7]: 0.58 nM
- ED50, plaque reduction, RSV A2 (mass concentration) [7]: 0.029 µg/mL
- EC50 [11]: 0.08 nM

B10: IgG form of 104E5 (antibody, V domains shown)
VH: QVQLEQSGAEVKKPGSSVKVSCKPSGGTFDTYTISWVRQAPGQRLEWLGRIIPSLGETNYAHKLQGRVTITADKATSVVYMDLSDLTSEDAAVYYCAFRITGPVDWVWDYGMDVWGQGTTVSVSS
VL: DIQMTQSPSSLPASVGDRVTITCRASQNIKTYLNWYQQKPGRAPKLLISAVSNLQSGVPSRFSGTGSGTDFTLTISSLQPEDFATYYCQQSFSIPLTFGGGAKVEIKR
- EC50 [1]: 0.0145 nM
- ED50, plaque reduction, RSV B/wash [3]: 8 nM
- ED50, plaque reduction, RSV A2 [4]: 0.8 nM
- ED50, plaque reduction, RSV B-1 [5]: 1.7 nM

B11: Fab 90D3 (Fab, V domains shown)
VH: QVQLVESGGGLVKPGGSLRLSCVGSGFTLKNYEMNWVRQAPGQGLQYISYISSSGNVVKYVDSVQGRFTISRDNAGNSLYLQMNNLRAEDTATYYCVRGFSIDKYDSSVDEYWGQGIAVTVSS
VL: AIRLTQSPSSLSASVGDRVSITCRASQSISNFLNWYQQKPGRAPKLLISAASSLQGGVPSRFSGSGSGTDFTLTISSLQPEDFATYYCQQTYISLYTFGQGTKLEIKR
- ED50, plaque reduction, RSV A2 [7]: 0.8 nM

B12: IgG form of 14G3 (antibody, V domains shown)
VH: QVQLQESGPGLVKPSQTLSLTCTVSGASISSDNHYWSWIRQPPGKGLEWIASIYYTGGTNYNPSLKSRLALSIDTSGDQFSLKLSSVTAADTAVYYCVRGLFFITARPYWYFDLWGRGTLVAVSS
VL: DVVMTQTPLSLSVTPGEPASISCRSSQSLLDSDDGNTYLDWYLQKPGQSPQLLIYTLSYRASGVPDRFSGSGSGTDFTLKISRVEADDVGIYYCMQRMEFPFTFGQGTRLDIKR
- EC50 [8]: 0.251 nM
- ED50, plaque reduction, RSV B/wash [3]: 4.5 nM
- ED50, plaque reduction, RSV B-1 [5]: 10.7 nM

B13: Fab 17C9 (Fab, V domains shown)
VH: QVQLQQWGAGLVRPSETLSLTCAVYGDSFNDYFWTWIRQTPGKGLEWIGEISHSGSTNYSPSLKSRVTISVDTSKNQFSLKLSAVTAADTTVYFCARGVRSRPPPSYRGSGSPPYYHYGMDVWGQGTTVTVSS
VL: EIVLTQSPSTLSASVGDRVTITCRASQNINTWLAWYQQKPGKAPKLLIYAASFLQSGVPSRFSGSGSGTDFTLTISNLQPEDFATYFCQQANSFPRTFGQGTKVEVKR
notes: also called 17C9 Fab
- ED50, plaque reduction, RSV A2 parental [10]: 0.436 nM
- EC50 [6]: 0.136 nM
- ED50, plaque reduction, RSV A2 [7]: 0.352 nM

B14: IgG form of 17C9 (antibody, V domains shown)
VH: QVQLQQWGAGLVRPSETLSLTCAVYGDSFNDYFWTWIRQTPGKGLEWIGEISHSGSTNYSPSLKSRVTISVDTSKNQFSLKLSAVTAADTTVYFCARGVRSRPPPSYRGSGSPPYYHYGMDVWGQGTTVTVSS
VL: EIVLTQSPSTLSASVGDRVTITCRASQNINTWLAWYQQKPGKAPKLLIYAASFLQSGVPSRFSGSGSGTDFTLTISNLQPEDFATYFCQQANSFPRTFGQGTKVEVKR
- EC50 [1]: 0.059 nM
- ED50, plaque reduction, RSV B/wash [3]: 0.86 nM
- ED50, plaque reduction, RSV A2 [4]: 0.363 nM
- ED50, plaque reduction, RSV B-1 [5]: 0.329 nM
